Assay results: US20240124607A1 (Merck Sharp & Dohme, published 2024)

B1: ADI-27743 (antibody, V domains shown)
VH: QVQLQQWGAGLLKPSETLSLTCAVYGGSFSGYYWSWIRQPPGKGLEWIGEIDHSGSTNYNPSLKSRVTISVDTSKNQFSLKLSSVTAADTAVYYCARARGPWSFDPWGQGTLVTVSS
VL: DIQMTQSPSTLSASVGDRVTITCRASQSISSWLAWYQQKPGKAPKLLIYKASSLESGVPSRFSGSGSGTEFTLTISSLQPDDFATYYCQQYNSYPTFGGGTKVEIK
notes: named as a single clone only on the drawing sheets
B2: AB0509 (antibody, V domains shown)
VH: QVQLVQSGGGLVQPGGSLRLSCAASGFTFTSYAMSWVRQAPGKGLEWVSAISGTGDSTFYADSVKGRFTFSRDNSKNTLYLQMNSLRAEDTAVYYCAKDLGWLQYGLFDYWGQGTLVTVSS
VL: DIQLTQSPATLSVSPGERATLSCRASQSVSSSYLAWYQQKPGQAPRLLIYGASSRATGIPDRFSGSGSGTDFTLTISRLEPEDFAVYYCQQYNNWPLTFGGGTKVEIK
notes: the scFv entries carry the stabilising cysteines, which the mAb may lack; also called mAb corresponding to AB0411

How the values were obtained:
cynomolgus NKG2D-Fc = target: T1, cynomolgus NKG2D-Fc (cynomolgus monkey, UniProt P61252 73-216); assay: ELISA on plate-adsorbed recombinant cynomolgus NKG2D-Fc, anti-human kappa-HRP, OD 450 nm
T1 construct: extracellular domain
T1 sequence (looked up): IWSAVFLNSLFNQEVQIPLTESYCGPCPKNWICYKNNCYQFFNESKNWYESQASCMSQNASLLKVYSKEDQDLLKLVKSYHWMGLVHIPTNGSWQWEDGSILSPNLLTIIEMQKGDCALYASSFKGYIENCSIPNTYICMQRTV
Description: (§1) The nucleic acid sequences of human, mouse or cynomolgus NKG2D ectodomains were fused with nucleic acid sequences encoding human IgG1 Fc domains and introduced into mammalian cells to be expressed. After purification, NKG2D-Fc fusion proteins were adsorbed to wells of microplates. After blocking the wells with bovine serum albumin to prevent non-specific binding, NKG2D-binding domains were titrated and added to the wells pre-adsorbed with NKG2D-Fc fusion proteins. Primary antibody binding was detected using a secondary antibody which was conjugated to horseradish peroxidase and specifically recognizes a human kappa light chain to avoid Fc cross-reactivity. 3,3′,5,5′-Tetramethylbenzidine (TMB), a substrate for horseradish peroxidase, was added to the wells to visualize the binding signal, whose absorbance was measured at 450 nm and corrected at […]. An NKG2D-binding domain clone, an isotype control or a positive control (comprising heavy chain and light chain variable domains selected from the group consisting of: SEQ ID NOs: 526-529, or anti-mouse NKG2D clones MI-6 and CX-5 available at eBioscience) was added to each well.

mouse NKG2D-Fc [1] = target: T2, mouse NKG2D-Fc (mouse, UniProt O54709 90-232); assay: ELISA on plate-adsorbed recombinant mouse NKG2D-Fc, anti-human kappa-HRP, OD 450 nm
T2 construct: extracellular domain; also called Mouse NKG2D-Fc-biotin
T2 sequence (looked up): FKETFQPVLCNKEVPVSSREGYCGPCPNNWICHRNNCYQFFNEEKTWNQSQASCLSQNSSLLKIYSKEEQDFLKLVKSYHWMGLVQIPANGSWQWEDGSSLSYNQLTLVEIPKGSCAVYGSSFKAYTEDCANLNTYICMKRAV
Description: as §1

human NKG2D-Fc [2] = target: T3, human NKG2D-Fc (human, UniProt P26718 73-216); assay: ELISA on plate-adsorbed recombinant human NKG2D-Fc, anti-human kappa-HRP, OD 450 nm
T3 construct: extracellular domain; also called recombinant human NKG2D-Fc; NKG2D-Fc-biotin
T3 sequence (looked up): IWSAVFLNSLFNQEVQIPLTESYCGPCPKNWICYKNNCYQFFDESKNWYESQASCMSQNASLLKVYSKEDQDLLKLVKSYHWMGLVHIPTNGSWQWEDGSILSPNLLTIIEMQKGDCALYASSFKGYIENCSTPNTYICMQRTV
Description: as §1

human NKG2D-Fc [3] = target: T3, human NKG2D-Fc; assay: competition ELISA on plate-adsorbed human NKG2D-Fc; blocked ligand ULBP-6-His-biotin
Experimental: Recombinant human NKG2D-Fc proteins were adsorbed to wells of a microplate, and the wells were blocked with bovine serum albumin to reduce non-specific binding. A saturating concentration of ULBP-6-His-biotin was added to the wells, followed by addition of the NKG2D-binding domain clones. After a 2-hour incubation, wells were washed and ULBP-6-His-biotin that remained bound to the NKG2D-Fc coated wells was detected by streptavidin-conjugated to horseradish peroxidase and TMB substrate. Absorbance was measured at 450 nm and corrected at […]. After subtracting background, specific binding of NKG2D-binding domains to the NKG2D-Fc proteins was calculated from the percentage of ULBP-6-His-biotin that was blocked from binding to the NKG2D-Fc proteins in wells.

human NKG2D-Fc [4] = target: T3, human NKG2D-Fc; assay: competition ELISA: human NKG2D-Fc-biotin binding to plate-adsorbed MICA-Fc is blocked
Experimental: Recombinant human MICA-Fc proteins were adsorbed to wells of a microplate, and the wells were blocked with bovine serum albumin to reduce non-specific binding. NKG2D-Fc-biotin was added to wells followed by NKG2D-binding domains. After incubation and washing, NKG2D-Fc-biotin that remained bound to MICA-Fc coated wells was detected using streptavidin-HRP and TMB substrate. Absorbance was measured at 450 nm and corrected at […]. After subtracting background, specific binding of NKG2D-binding domains to the NKG2D-Fc proteins was calculated from the percentage of NKG2D-Fc-biotin that was blocked from binding to the MICA-Fc coated wells.

mouse NKG2D-Fc [5] = target: T2, mouse NKG2D-Fc; assay: competition ELISA: mouse NKG2D-Fc-biotin binding to plate-adsorbed Rae-1delta-Fc is blocked
Experimental: Recombinant mouse Rae-1delta-Fc (purchased from R&D Systems) was adsorbed to wells of a microplate, and the wells were blocked with bovine serum albumin to reduce non-specific binding. Mouse NKG2D-Fc-biotin was added to the wells followed by NKG2D-binding domains. After incubation and washing, NKG2D-Fc-biotin that remained bound to Rae-1delta-Fc coated wells was detected using streptavidin-HRP and TMB substrate. Absorbance was measured at 450 nm and corrected at […]. After subtracting background, specific binding of NKG2D-binding domains to the NKG2D-Fc proteins was calculated from the percentage of NKG2D-Fc-biotin that was blocked from binding to the Rae-1delta-Fc coated wells.

human CEACAM5 on cells [6] = target: T4, human CEACAM5 on cells (human, UniProt P06731 35-685); assay: flow cytometry, MKN-45 cells; MKN-45 cells
T4 construct: tumour cell lines with endogenous CEACAM5, or B16F10 engineered to express hCEACAM5; also called CEACAM5 on MKN-45, HPAF-II, SK-CO-1, LoVo, BxPC-3, Kato-III, LS-174T, ZR-75-30; hCEACAM5-B16F10
T4 sequence: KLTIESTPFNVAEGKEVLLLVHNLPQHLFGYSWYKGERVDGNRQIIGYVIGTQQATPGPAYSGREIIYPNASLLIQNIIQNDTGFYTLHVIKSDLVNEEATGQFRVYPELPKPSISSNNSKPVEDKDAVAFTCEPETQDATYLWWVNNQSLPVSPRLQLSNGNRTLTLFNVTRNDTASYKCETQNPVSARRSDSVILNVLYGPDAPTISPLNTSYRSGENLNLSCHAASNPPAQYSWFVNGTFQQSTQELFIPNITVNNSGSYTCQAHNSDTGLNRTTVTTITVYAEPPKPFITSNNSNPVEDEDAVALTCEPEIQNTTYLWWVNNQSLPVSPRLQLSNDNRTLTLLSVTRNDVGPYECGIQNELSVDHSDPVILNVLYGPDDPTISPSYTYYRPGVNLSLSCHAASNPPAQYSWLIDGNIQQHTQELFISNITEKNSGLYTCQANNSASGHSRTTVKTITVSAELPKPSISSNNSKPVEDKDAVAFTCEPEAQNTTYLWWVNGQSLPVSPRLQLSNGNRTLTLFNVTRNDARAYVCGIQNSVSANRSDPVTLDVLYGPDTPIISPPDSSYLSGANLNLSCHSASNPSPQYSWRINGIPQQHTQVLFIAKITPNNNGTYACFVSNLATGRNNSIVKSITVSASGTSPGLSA

human CEACAM5 on cells [7] = target: T4, human CEACAM5 on cells; assay: flow cytometry, LoVo cells
human CEACAM5 on cells [8] = target: T4, human CEACAM5 on cells; assay: flow cytometry, Kato-III cells
human CEACAM5 on cells [9] = target: T4, human CEACAM5 on cells; assay: flow cytometry, BxPC-3 cells
human CEACAM5 on cells [10] = target: T4, human CEACAM5 on cells; assay: flow cytometry, MKN-45 cells
human CEACAM5 on cells [11] = target: T4, human CEACAM5 on cells; assay: flow cytometry, SK-CO-1 cells

Binder	EC50 (read off the curve) (cynomolgus NKG2D-Fc)	EC50 (read off the curve) (mouse NKG2D-Fc [1])	EC50 (read off the curve) (human NKG2D-Fc [2])	IC50 (read off the curve) (human NKG2D-Fc [3])	IC50 (read off the curve) (human NKG2D-Fc [4])	IC50 (read off the curve) (mouse NKG2D-Fc [5])	EC50 (human CEACAM5 on cells [6])	EC50 (human CEACAM5 on cells [7])	Max FOB (human CEACAM5 on cells [7])	EC50 (human CEACAM5 on cells [8])	Max FOB (human CEACAM5 on cells [8])	EC50 (human CEACAM5 on cells [9])	Max FOB (human CEACAM5 on cells [9])	Max FOB (human CEACAM5 on cells [10])	EC50 (human CEACAM5 on cells [11])	Max FOB (human CEACAM5 on cells [11])
B1	~0.3 nM	~0.2 nM	~0.4 nM	~3 nM	~20 nM	~20 nM										
B2							< 9.05 nM	3.25 nM	19 fold over background	1.17 nM	5 fold over background	4.28 nM	19 fold over background	107 fold over background	8.67 nM	37 fold over background
